This assay has as its target T1, mouse TLR9 (mouse, UniProt Q9EQU3 26-1032).
T1 construct: Endogenous TLR9 of mouse spleen cDCs (staining) and of BM-cDC lysate (immunoprecipitation); also called endogenous TLR9
T1 sequence: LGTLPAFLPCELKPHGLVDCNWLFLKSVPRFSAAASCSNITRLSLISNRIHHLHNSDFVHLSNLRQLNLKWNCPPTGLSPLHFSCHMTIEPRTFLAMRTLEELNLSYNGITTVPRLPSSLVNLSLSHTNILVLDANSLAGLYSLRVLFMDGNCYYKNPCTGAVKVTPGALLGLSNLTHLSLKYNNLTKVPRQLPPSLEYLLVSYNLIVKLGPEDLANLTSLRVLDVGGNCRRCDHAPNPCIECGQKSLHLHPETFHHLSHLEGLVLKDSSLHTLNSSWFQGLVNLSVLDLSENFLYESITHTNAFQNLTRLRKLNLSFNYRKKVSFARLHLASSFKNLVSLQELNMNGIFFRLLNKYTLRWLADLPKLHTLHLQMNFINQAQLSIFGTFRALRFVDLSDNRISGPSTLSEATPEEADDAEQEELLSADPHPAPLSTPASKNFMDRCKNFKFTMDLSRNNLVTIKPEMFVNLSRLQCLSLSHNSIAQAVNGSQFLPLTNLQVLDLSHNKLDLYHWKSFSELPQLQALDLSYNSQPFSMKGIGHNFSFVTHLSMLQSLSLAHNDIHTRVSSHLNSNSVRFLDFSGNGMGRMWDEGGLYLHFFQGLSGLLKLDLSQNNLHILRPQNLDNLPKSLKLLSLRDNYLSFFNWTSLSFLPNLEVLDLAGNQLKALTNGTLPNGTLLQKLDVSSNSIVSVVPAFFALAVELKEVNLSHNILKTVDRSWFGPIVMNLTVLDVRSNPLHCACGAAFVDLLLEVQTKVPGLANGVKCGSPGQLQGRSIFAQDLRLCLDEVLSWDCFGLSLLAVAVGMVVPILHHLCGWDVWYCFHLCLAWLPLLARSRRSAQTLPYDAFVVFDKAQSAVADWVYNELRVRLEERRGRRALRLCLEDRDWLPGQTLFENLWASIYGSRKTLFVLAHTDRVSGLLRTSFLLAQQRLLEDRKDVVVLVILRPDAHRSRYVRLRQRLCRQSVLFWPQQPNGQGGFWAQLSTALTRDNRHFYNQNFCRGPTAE
Description: immunoprecipitation from BM-cDC lysate, Western blot; also staining of spleen cDCs. The procedure:
The protein expression of TLR9 was analyzed by Western blot. BM-cDCs were washed twice with 1×PBS and recovered. The recovered cells were lysed for 30 minutes in an ice-cold buffer for lysis (1% Triton X 100, 20 mM Tris-HCl (pH 7.4), 150 mM NaCl, 1 mM CaCl₂, 1 mM MgCl₂, 10% glycerol, 1 mM DTT and Complete protease Inhibitor Cocktail (F. Hoffmann-La Roche, Ltd.)) and centrifuged at a high speed, followed by the recovery of the supernatant of the cell lysate.
The recovered cell lysate was added to N-hydroxy succinimide-activated Sepharose 4FF beads bound with the anti-TLR9 monoclonal antibody (NaR9), and the mixture was stirred at 4° C. for 2 hours. TLR9 was immunoprecipitated by this step. The beads thus stirred were washed three times with an ice-cold buffer for washing (0.1% Triton X 100, 20 mM Tris/HCl (pH 7.4), 150 mM NaCl, 1 mM CaCl₂), 1 mM MgCl2, 0.1% glycerol, and 1 mM DTT). To the washed beads, an SDS sample buffer (125 mM Tris/HCl [pH 6.8], 20% glycerol, 4% SDS, 10% 2-ME, and 0.005% bromophenol blue) was added, and the mixture was heated at 96° C. for 5 minutes for protein denaturation treatment. The sample thus prepared was subjected to polyacrylamide electrophoresis, and the protein was transferred to a PVDF membrane and Western-blotted. […]
On the technique in general: In western blotting, separated proteins are transferred to a membrane and probed.

B1: anti-mouse TLR9 monoclonal antibody NaR9 (antibody, IgG2a, V domains shown)
VH: QVHLQQSGPDLVKPGASVQMSCKTSDYTFTNYYLHWVRQRPGQGLEWIGWIYPGDGSTKYNDQFRGRTTLTADKSSSTAYMFLSSLTSEDSAIYFCAKSWDYFDYWGQGTTLTVSS
VL: DIQMTQSPSSLSASLGGKVTITCKASQDIDNYIAWYQHKPGKGPRLLIHYASTLQPGIPSRFSGSGSGRDYSLSISNLEPEDIATYYCLQYDDLYTFGGGTKLEIK
notes: Mouse hybridoma antibody, subclass IgG2a/kappa, purified from ascitic fluid; They may therefore cover only the variable regions, possibly with a leader; also called NaR9 antibody; anti-TLR9 monoclonal antibody (NaR9)
Take B1: the binding result is “binds”.

These data come from US20190292270A1 (UNIVERSITY OF TOKYO, published 2019).
